# Tests used:
# [1] = biological target: GCN4^WT (leucine zipper dimerization element of GCN4), C-terminal 6x His-tagged (yeast); experiment: native gel or EMSA; native (nondenaturing) PAGE beside SDS-PAGE of GCN4^WT and GCN4^3mut
# [2] = biological target: GCN4 leucine zipper (Saccharomyces cerevisiae) (UniProt P03069); conditions: cited from earlier work
# Chain of GCN4 leucine zipper (P03069 250-277): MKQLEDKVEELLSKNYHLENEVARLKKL
# Chain of GCN4^WT (leucine zipper dimerization element of GCN4), C-terminal 6x His-tagged (domain or fragment) (P03069 whole entry, the tested form may be a part): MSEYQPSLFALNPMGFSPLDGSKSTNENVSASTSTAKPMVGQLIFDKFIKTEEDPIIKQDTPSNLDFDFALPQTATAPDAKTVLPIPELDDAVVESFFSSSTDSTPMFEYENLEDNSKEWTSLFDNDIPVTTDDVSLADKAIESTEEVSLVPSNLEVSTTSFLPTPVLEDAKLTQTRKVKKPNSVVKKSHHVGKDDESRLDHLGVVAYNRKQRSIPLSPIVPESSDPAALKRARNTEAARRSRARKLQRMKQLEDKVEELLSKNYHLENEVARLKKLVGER
stoichiometry N [1],Substance,Kd [2]
2,"GCN4^WT (leucine zipper dimerization element of GCN4), C-terminal 6x His-tagged (domain or fragment)",
,GCN4 leucine zipper (from UniProt P03069),0.18 nM

# Source: publication PMC8677947
